From paper PMC12051234, “NrdR in Streptococcus and Listeria spp.: DNA Helix Phase Dependence of the Bacterial Ribonucleotide Reductase Repressor” (Molecular Microbiology, 2025)

Biological target: T1, EcoNrdR (Escherichia coli) (UniProt P0A8D0)
T1 sequence: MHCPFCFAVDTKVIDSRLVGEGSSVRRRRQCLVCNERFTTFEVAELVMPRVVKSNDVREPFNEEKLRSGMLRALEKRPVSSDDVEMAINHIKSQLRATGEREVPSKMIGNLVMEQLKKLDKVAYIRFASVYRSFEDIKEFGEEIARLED
Assay: MST
Settings: temperature not stated. Lmo: 25 mM Bis-Tris propane pH 6.5, 100 mM KCl, 5 mM MgCl2, 5% glycerol, 1 mM DTT, 0.05% Tween 20, one nucleotide 1 mM or two at 0.

## ACTATTTGCTATATATTGTGTGGTTGAATCTTTTTTCAACTACATCTAGTATCTCTG (double strand) [Eco nrdHIEF wild type]
  Kd: 0.13 µM
